# Measurements from patent US9657061B2, “Hydrochloride salt of peptide and its use in combination with other peptides for immunotherapy” (Circassia Limited, priority 2012, dated 2017).
# Where no end group is shown, it is not given here.
# What was measured:
# [1] = Stability of salts of MLA01 on storage: purity by HPLC; format: physicochemical; details: for course of purity over the 4 week test period (in words): −20° C., 5° C., 25° C./60% RH, 40° C./75% RH
# Procedure: (§1) The stability of MLA01 trifluoroacetate, MLA01 acetate and MLA01 hydrochloride when stored in an inert container over a four week period under different storage conditions was tested. The specific storage conditions evaluated are set out in Table 1.
# (§2) Samples of each MLA01 salt were stored in inert glass containers with polypropylene twist-off caps. The samples were stored and removed at various time points for testing according to the schedule in Table 2, where X denotes removal of a sample for testing.
# The purity of each sample was tested by HPLC. Purity was measured as area-percent, and the results are set out in Tables 3A to 3C below (where “-” denotes test not performed).
# [2] = Stability of salts of MLA01 on storage: levels of three specific impurities (RRT 0.978, 1.072, 1.099); format: physicochemical
# Procedure: as §1, §2
# The levels of three specific impurities with relative retention times (RRTs) of 0.978, 1.072 and 1.099 were also measured. The impurity with an RRT of 0.978 is the impurity formed by cleavage of the terminal Cys-Pro residues from the MLA01 peptide. The impurity with an RRT of 1.072 is the cysteine sulfinic acid impurity of the MLA01 peptide. The impurity with an RRT of 1.099 is the dimer of the MLA01 peptide. The values are set out in Tables 4A to 4C below (where “<” denotes less than 0.1%).
Sequence,"purity (HPLC) ([1]; storage 5° C., 2 weeks) [area-percent]","purity (HPLC) ([1]; storage 5° C., 4 weeks) [area-percent]","purity (HPLC) ([1]; storage 25° C./60% RH, 2 weeks) [area-percent]","purity (HPLC) ([1]; storage 25° C./60% RH, 4 weeks) [area-percent]","purity (HPLC) ([1]; storage 40° C./75% RH, 2 weeks) [area-percent]","purity (HPLC) ([1]; storage 40° C./75% RH, 4 weeks) [area-percent]","purity (HPLC) ([1]; storage −20° C., 0 weeks) [area-percent]","purity (HPLC) ([1]; storage −20° C., 2 weeks) [area-percent]","purity (HPLC) ([1]; storage −20° C., 4 weeks) [area-percent]",course of purity over the 4 week test period (in words) [1],"impurity RRT 0.978 (cleavage of the terminal Cys-Pro residues) ([2]; 0 weeks, −20° C.) [%]","impurity RRT 1.072 (cysteine sulfinic acid impurity) ([2]; 0 weeks, −20° C.) [%]","impurity RRT 1.099 (dimer of the MLA01 peptide) ([2]; 0 weeks, −20° C.) [%]","impurity RRT 0.978 (cleavage of the terminal Cys-Pro residues) ([2]; 4 weeks, 40° C./75% RH) [%]","impurity RRT 1.072 (cysteine sulfinic acid impurity) ([2]; 4 weeks, 40° C./75% RH) [%]","impurity RRT 1.099 (dimer of the MLA01 peptide) ([2]; 4 weeks, 40° C./75% RH) [%]","impurity RRT 0.978 (cleavage of the terminal Cys-Pro residues) ([2]; 4 weeks, −20° C.) [%]","impurity RRT 1.072 (cysteine sulfinic acid impurity) ([2]; 4 weeks, −20° C.) [%]","impurity RRT 1.099 (dimer of the MLA01 peptide) ([2]; 4 weeks, −20° C.) [%]","stability compared with other salt forms (in words) ([1]; 4 week storage, all conditions tested)"
CPAVKRDVDLFLT [MLA01 acetate] (also: acetate salt),82.7,84.2,75.6,67.2,54.0,39.4,90.6,84.5,88.1,degraded under all conditions tested,2.0,2.5,1.6,17.1,5.9,12.8,2.3,2.8,2.5,
CPAVKRDVDLFLT [MLA01 hydrochloride] (also: hydrochloride salt),94.0,95.7,94.3,95.5,92.4,95.3,96.6,94.0,95.6,stayed constant,<0.1,0.1,0.34,0.2,0.2,0.6,0.1,<0.1,0.7,more stable than MLA01 acetate or MLA01 trifluoroacetate
CPAVKRDVDLFLT [MLA01 trifluoroacetate] (also: trifluoroacetate salt),95.6,95.2,94.4,94.5,91.0,89.4,96.7,95.9,95.8,degraded at higher temperature/humidity,<0.1,<0.1,0.3,0.9,0.2,2.8,<0.1,<0.1,0.6,
